Source: patent US20180312579A1 (Genentech, published 2018)

Key:
[1] = molecular target: T1, human RSPO3 with C-terminal HA tag, stably expressed in 293 cells (human, UniProt Q9BXY4 22-272); assay: IHC, FFPE 293 cell pellet, RSPO3 Low
T1 construct: Whole open reading frame expressed in HEK-293 cells (high, medium, low); FFPE pellets; also called hRSPO3; RSPO3 Hi
T1 sequence: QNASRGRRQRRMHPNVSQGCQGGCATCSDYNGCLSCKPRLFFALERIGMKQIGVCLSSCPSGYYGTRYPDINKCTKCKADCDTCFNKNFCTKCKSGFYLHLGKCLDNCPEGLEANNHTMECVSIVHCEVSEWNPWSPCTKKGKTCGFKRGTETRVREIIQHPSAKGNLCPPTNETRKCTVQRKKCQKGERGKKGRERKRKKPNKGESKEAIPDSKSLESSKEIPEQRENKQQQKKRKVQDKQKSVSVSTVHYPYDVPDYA

[2] = molecular target: T2, FLAG-tagged human RSPO3 (Genentech) (human, UniProt Q9BXY4 22-272); assay: competitive binding ELISA: antibody titrated against LGR4-Fc (LGR4-ECD) binding to plate-coated hRSPO3; signal = bound LGR4-Fc, OD(450/630)/OD no antibody
T2 construct: also called hRSPO3; RSPO3 coated plates; not shown: FLAG tag
T2 sequence: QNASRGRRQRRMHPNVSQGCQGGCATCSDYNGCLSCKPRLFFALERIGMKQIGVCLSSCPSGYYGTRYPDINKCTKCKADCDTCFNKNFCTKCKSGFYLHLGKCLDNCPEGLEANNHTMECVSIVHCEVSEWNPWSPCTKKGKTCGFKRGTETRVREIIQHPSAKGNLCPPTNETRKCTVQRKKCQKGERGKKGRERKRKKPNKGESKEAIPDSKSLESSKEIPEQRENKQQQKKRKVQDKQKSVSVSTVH
Method in brief: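 Plates coated with 0.5 μg/ml hRSPO2 or hRSPO3 at pH 9.6 were incubated 2 h at room temperature with antibody (0.078-10 […] dilutions) plus 0.1 μg/ml LGR4-Fc. Bound LGR4-Fc was detected by HRP anti-human Fc and TMB, with absorbance read at 450 nm.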

[3] = molecular target: T3, human RSPO4 with C-terminal HA tag, stably expressed in 293 cells (human, UniProt Q2I0M5 20-234); assay: IHC, FFPE 293 cell pellet, RSPO4 Hi; - = not significant staining
T3 construct: also called hRSPO4; RSPO4 Hi

[4] = molecular target: T1, human RSPO3 with C-terminal HA tag, …; assay: IHC, FFPE 293 cell pellet, RSPO3 Hi
[5] = molecular target: T2, FLAG-tagged human RSPO3 (Genentech); assay: competitive binding ELISA: titrated against biotinylated RNF43-Flag (RNF43-ECD) binding to plate-coated hRSPO3; signal = bound RNF43, normalized OD
[6] = molecular target: T4, human RSPO1 with C-terminal HA tag, stably expressed in 293 cells (human, UniProt Q2MKA7 21-263); assay: IHC, FFPE 293 cell pellet, RSPO1 Hi; - = not significant staining
T4 construct: also called hRSPO1; RSPO1 Hi

[7] = molecular target: T1, human RSPO3 with C-terminal HA tag, …; assay: IHC, FFPE 293 cell pellet, RSPO3 Med
[8] = molecular target: T5, human RSPO2 with C-terminal HA tag, stably expressed in 293 cells (human, UniProt Q6UXX9 22-243); assay: IHC, FFPE 293 cell pellet, RSPO2 Hi; - = not significant staining
T5 construct: Whole open reading frame was expressed from a lentiviral vector in HEK-293 cells sorted for high, medium or low expression; formalin-fixed paraffin-embedded pellets; also called hRSPO2; RSPO2 Hi

mouse RSPO3 = molecular target: T6, mouse RSPO3 (mouse, UniProt Q2TJ95 22-277, limits assumed); assay: cell-based or functional assay
T6 sequence (looked up): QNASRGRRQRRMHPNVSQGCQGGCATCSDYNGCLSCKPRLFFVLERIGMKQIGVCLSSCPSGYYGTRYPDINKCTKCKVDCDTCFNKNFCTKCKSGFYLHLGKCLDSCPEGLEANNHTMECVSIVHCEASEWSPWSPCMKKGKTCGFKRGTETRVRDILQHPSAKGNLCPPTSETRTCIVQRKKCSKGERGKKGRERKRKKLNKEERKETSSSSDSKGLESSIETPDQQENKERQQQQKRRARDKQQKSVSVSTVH

mouse RSPO2 = mouse RSPO2 (mouse, UniProt Q8BFU0 22-205, limits assumed); assay: cell-based or functional assay
cynomolgus RSPO2 = cynomolgus RSPO2 (cynomolgus, UniProt G7PCH9 22-243); assay: cell-based or functional assay
recombinant human RSPO2 = recombinant human RSPO2 (human, UniProt Q6UXX9 22-243); assay: cell-based or functional assay
recombinant human RSPO3 = molecular target: T7, recombinant human RSPO3 (human, UniProt Q9BXY4 22-272); assay: cell-based or functional assay
T7 sequence: T2 sequence

cynomolgus RSPO3 = molecular target: T8, cynomolgus RSPO3 (cynomolgus, UniProt A0A2K5UTQ7 22-273); assay: cell-based or functional assay
T8 sequence: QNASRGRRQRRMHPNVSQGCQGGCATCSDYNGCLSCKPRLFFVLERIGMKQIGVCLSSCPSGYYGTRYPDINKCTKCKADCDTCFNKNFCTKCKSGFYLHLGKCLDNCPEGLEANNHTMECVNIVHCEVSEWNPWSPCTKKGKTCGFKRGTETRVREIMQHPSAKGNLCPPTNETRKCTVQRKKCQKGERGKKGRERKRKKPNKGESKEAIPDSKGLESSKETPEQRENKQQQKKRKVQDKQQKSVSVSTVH

Sequence of cynomolgus RSPO2 (G7PCH9 entry or part of it): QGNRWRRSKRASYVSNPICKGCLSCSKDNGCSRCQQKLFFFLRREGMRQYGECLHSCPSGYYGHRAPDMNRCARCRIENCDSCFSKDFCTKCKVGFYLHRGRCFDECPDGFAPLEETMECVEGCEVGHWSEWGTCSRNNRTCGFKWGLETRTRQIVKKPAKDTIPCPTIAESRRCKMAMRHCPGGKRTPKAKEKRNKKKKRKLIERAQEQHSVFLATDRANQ
Sequence of mouse RSPO2 (Q8BFU0 22-205 limits assumed): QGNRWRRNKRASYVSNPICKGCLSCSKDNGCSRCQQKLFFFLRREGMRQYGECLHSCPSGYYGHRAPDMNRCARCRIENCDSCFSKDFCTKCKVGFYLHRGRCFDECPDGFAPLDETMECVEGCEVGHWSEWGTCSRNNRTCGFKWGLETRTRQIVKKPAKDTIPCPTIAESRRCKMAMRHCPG
T5 sequence (Q6UXX9 other isoform, or with tags, fused parts or gaps): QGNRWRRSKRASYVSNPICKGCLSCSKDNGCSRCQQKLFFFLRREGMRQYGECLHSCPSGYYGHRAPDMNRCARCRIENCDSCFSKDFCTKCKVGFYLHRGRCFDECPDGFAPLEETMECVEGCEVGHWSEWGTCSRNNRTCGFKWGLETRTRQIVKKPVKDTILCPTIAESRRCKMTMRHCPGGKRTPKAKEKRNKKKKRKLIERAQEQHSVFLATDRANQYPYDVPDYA
T3 sequence (Q2I0M5 other isoform, or with tags, fused parts or gaps limits assumed): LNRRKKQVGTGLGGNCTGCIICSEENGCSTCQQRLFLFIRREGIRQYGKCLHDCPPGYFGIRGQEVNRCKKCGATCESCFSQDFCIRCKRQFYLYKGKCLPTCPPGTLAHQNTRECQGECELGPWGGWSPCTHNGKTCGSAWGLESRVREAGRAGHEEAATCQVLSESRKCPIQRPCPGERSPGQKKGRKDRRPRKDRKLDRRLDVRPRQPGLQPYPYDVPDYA
T4 sequence (Q2MKA7 other isoform, or with tags, fused parts or gaps limits assumed): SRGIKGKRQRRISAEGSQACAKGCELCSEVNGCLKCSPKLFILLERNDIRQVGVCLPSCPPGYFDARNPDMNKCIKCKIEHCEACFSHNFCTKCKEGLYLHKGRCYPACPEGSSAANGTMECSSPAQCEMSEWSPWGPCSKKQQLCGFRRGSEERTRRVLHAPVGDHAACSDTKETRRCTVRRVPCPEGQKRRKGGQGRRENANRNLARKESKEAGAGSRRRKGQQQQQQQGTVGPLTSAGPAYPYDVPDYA
Sequence of recombinant human RSPO2 (Q6UXX9 22-243): as the sequence (G7PCH9 entry or part of it) above, with A160V, P165L, A178T counted along it

B1: 5E11 (antibody, V domains shown)
VH: QVQLKQSGPGLVQPSQSLSITCTVSGFSLSSYAVHWVRQSPGEGLEWLGVIWSGGSTDYNAAFISRMSITKDNSKSQVFFKMNSLQADDTAIYFCARNDGYYYFDYWGQGTTLTVSS
VL: DIVMTQSTSSLSASLGDRVTISCRASQDISNYLNWYQQKPDGTVKLLIYYTSRLHSGVPSRFSGSGSGTDYSLTISNLEKEDVATYFCQHGDTLPPTFGGGTKLEIK
notes: also called monoclonal antibody 5E11
How did the “percentage of cells staining” value [1] turn out when B1 was run?
Its value is 20%.

And the “IC50 (read off the curve)” value [2]?
Its value is ~0.1 µg/mL.

Does B1 bind [3]?
Result: no binding

What about the “percentage of cells staining” value [4] of the same binder?
The value was 90%.

What about the “IC50 (read off the curve)” value [5] of the same binder?
Its value is ~0.08 µg/mL.

Does B1 bind [6]?
Result: no binding

And the “percentage of cells staining” value [7]?
Its value is 80%.

Does B1 bind [8]?
Result: no binding

And the “IC50, WNT luciferase reporter, bivalent antibody” value (shortened to “IC50, WNT luciferase reporter”) (mouse RSPO3)?
The value was 0.5 nM.

What about the “IC50, WNT luciferase reporter” value (mouse RSPO2) of the same binder?
Its value is > 500 nM.

And the “IC50, WNT luciferase reporter” value (cynomolgus RSPO2)?
The value was > 500 nM.

And the “IC50, WNT luciferase reporter” value (recombinant human RSPO2)?
Its value is > 500 nM.

And the “IC50, WNT luciferase reporter” value (recombinant human RSPO3)?
The value was 0.09 nM.

What about the “IC50, WNT luciferase reporter” value (cynomolgus RSPO3) of the same binder?
Its value is 0.31 nM.
